Laboratory results published in article PMC11045745, “NMR characterization of RNA binding property of the DEAD-box RNA helicase DDX3X and its implications for helicase activity”.

Target: DDX3X core WT (Homo sapiens, UniProt O00571 132-607)
Test: NMR (13C-1H HMQC); AMPPNP; apparent affinity lower than E348Q with ATP; EMSA: 20 mM HEPES-NaOH pH 7.4, 100 mM NaCl, 5 mM DTT, 10% glycerol, 5 mM ATP/MgCl2 or ADP/EDTA, 100 nM RNA; NMR: 35 C (30 C for UA-12mer), 40-50 uM protein (HMQC) or 100 uM RNA (19F), 5 mM ATP/MgCl2; NMR buffer not given in the material
Conditions: protein: recombinant; tags: His6-SUMO removed (Ulp1); two-Gly linker

Chain of DDX3X core WT (O00571 132-607): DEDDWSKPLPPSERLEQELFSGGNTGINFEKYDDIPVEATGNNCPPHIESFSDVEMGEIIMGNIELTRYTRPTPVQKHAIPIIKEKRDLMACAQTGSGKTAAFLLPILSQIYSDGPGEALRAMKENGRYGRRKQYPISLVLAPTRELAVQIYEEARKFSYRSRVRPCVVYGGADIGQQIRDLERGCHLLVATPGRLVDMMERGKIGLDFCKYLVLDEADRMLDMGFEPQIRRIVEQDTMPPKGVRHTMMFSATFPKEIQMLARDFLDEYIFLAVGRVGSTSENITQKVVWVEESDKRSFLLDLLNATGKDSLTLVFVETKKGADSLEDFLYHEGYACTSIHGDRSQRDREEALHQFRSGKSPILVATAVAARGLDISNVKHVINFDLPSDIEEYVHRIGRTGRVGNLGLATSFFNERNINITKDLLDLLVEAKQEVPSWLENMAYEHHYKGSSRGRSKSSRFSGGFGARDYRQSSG

Question: Does UUUUUUUUUU (ssRNA) [poly-U10] bind?
Answer: binds
